From US20260049113A1 come the findings set out here.

T1: Full length human midkine protein (human) (UniProt P21741)
T1 sequence: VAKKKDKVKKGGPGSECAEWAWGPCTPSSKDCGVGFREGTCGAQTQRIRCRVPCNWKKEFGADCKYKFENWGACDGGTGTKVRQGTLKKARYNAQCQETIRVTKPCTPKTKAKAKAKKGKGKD

B1: Δ58 MDK (truncated human midkine lacking 58 amino acids from the C-terminus) (ligand)
chain: VAKKKDKVKKGGPGSECAEWAWGPCTPSSKDCGVGFREGTCGAQTQRIRCRVPCNWKKEFGADCK
B2: Δ14 MDK (truncated human midkine lacking 14 amino acids from the C-terminus) (ligand)
chain: VAKKKDKVKKGGPGSECAEWAWGPCTPSSKDCGVGFREGTCGAQTQRIRCRVPCNWKKEFGADCKYKFENWGACDGGTGTKVRQGTLKKARYNAQCQETIRVTKPCTPK
B3: Δ25 MDK (truncated human midkine lacking 25 amino acids from the C-terminus) (ligand)
chain: VAKKKDKVKKGGPGSECAEWAWGPCTPSSKDCGVGFREGTCGAQTQRIRCRVPCNWKKEFGADCKYKFENWGACDGGTGTKVRQGTLKKARYNAQCQE
B4: Δ34 MDK (truncated human midkine lacking 34 amino acids from the C-terminus) (ligand)
chain: VAKKKDKVKKGGPGSECAEWAWGPCTPSSKDCGVGFREGTCGAQTQRIRCRVPCNWKKEFGADCKYKFENWGACDGGTGTKVRQGTLKK
B5: Δ41 MDK (truncated human midkine lacking 41 amino acids from the C-terminus) (ligand)
chain: VAKKKDKVKKGGPGSECAEWAWGPCTPSSKDCGVGFREGTCGAQTQRIRCRVPCNWKKEFGADCKYKFENWGACDGGTGTKV

The assay addresses T1, Full length human midkine protein (human). Kind of assay: cell-based or functional assay.
In turn, B1 showed a Total Area (area under the curve of wound width, Cell Migration Assay) of 1990.

B2 came in with a Total Area (area under the curve of wound width, Cell Migration Assay) of 1710.

In turn, B3 returned a Total Area (area under the curve of wound width, Cell Migration Assay) of 1040.

As for B4, the Total Area (area under the curve of wound width, Cell Migration Assay) was determined as 768.

Regarding B5, the Total Area (area under the curve of wound width, Cell Migration Assay) came out at 924.
